B1: C1orf55 (parent)
chain: FTSPDYQQQCHEMAERLEDSVLKG
B2: RTP4 (parent)
chain: TYWEHWTSQGQVRMRLFGQRCQKC

Variants of: B1
Experiment: protein stability index of a GFP-peptide fusion (GPS, HEK-293T) (PSI 1-6); higher = more stable
Settings: c terminus: a fixed tail appended
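Also: lentivirally expressed fusions sorted by FACS into six bins by GFP to DsRed ratio, PSI derived from sequencing read proportions per bin multiplied by bin number.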

Protein stability index, by site and new letter:
V21: G 2.09; C 2.12; T 2.65; D 2.34; A 3.08; I 2.55; R 2.33; W 1.68; F 2.01; K 2.99; P 2.73; S 2.56; E 2.87; N 2.94; M 1.9; Y 2.06; Q 2.21; L 2.17; H 2.41
L22: Y 2.26; A 2.42; I 2.36; N 2.93; H 2.05; K 2.12; F 1.9; G 2.57; T 2.22; M 2.35; W 2.21; P 2.97; R 2.71; Q 2.79; E 2.1; D 2.48; S 2.76; C 2.62; V 2.75
K23: L 2.37; N 2.6; Y 1.99; H 1.89; W 2.39; D 2.57; E 2.35; S 2.24; I 2.1; R 2.57; V 3.3; C 1.79; G 2.38; F 1.5; P 2.35; Q 2.23; M 2.02; T 2.13; A 1.4
G24: M 2.44; C 2.52; K 2.49; W 1.78; Y 1.8; E 2.74; P 2; I 1.5; F 2.01; R 1.87; Q 2; D 1.91; S 1.89; H 1.52; N 2.15; L 1.87; T 2.26; V 1.72; A 1.98
E18: C 1.99; I 1.52; A 1.96; S 2.06; G 2.23; R 2.36; W 1.55; L 1.76; F 1.65; K 1.74; T 1.4; M 1.97; Q 2.05; V 1.4; P 1.78; N 1.44; Y 1.79; H 1.74; D 1.9
S20: N 1.55; W 2.08; G 1.72; V 2.7; F 1.85; E 2.67; I 2.26; H 1.75; K 1.75; L 2.93; P 2.12; Y 1.91; T 2.08; M 2.06; C 2.4; A 1.95; R 2.47; D 2.3; Q 2.9
L17: P 2.66; V 2.35; Q 2.34; W 1.98; S 2.47; T 2.9; M 1.92; N 2.23; R 2.72; Y 2.22
D19: Q 2.04; E 2.04; M 2.08; S 2.87; F 1.79; Y 1.91; T 1.76; A 1.83; N 2.37; I 2.86; P 1.98; H 2.32; R 1.65; K 1.35; L 1.91; W 2.23; G 1.77; C 2.04; V 2.03

Variants of: B2
Experiment: as above
Settings: c terminus: a fixed tail appended

Protein stability index, by site and new letter:
T1: L 1.88; W 2.35; G 2.81; E 1.36; C 2.67; A 1.19; Q 2.15; Y 2.21; D 1.82; V 1.86; P 2.27; S 2.18; H 2.48
Y2: K 2.19; F 1.32; A 2.35; G 3.25; H 1.99; D 1.66; I 1.74; E 2.98; M 2.39; C 2.69; N 2.49
